The values below come from PMC7739268 (Journal of molecular biology, 2016).

Changes are numbered by the printed parent chain. Read-outs that look alike come from different tables or passages of the source.

T1: wild-type Cerberus Fc fusion protein (wtCer-Fc) (human, UniProt O95813 18-267)
T1 sequence (looked up): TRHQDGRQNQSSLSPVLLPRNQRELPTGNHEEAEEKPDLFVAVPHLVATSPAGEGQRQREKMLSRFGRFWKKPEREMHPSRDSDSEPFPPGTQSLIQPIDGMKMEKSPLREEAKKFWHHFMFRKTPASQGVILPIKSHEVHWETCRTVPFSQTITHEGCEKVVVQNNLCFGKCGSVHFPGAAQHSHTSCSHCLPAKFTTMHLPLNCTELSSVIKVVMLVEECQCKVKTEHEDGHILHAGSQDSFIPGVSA

T2: mutant Cerberus Fc fusion protein (mutCer-Fc) (human, UniProt O95813 18-267, Arg82Gly | Cys206Ala)
T2 sequence (looked up): T1 sequence (looked up) with R65G, C189A

B1: Recombinant human BMP-6 (ligand, UniProt P22004 375-513, looked up)
chain: SASSRRRQQSRNRSTQSQDVARVSSASDYNSSELKTACRKHELYVSFQDLGWQDWIIAPKGYAANYCDGECSFPLNAHMNATNHAIVQTLVHLMNPEYVPKPCCAPTKLNAISVLYFDDNSNVILKKYRNMVVRACGCH
B2: Recombinant human BMP-7 (ligand, UniProt P18075 293-431, looked up)
chain: STGSKQRSQNRSKTPKNQEALRMANVAENSSSDQRQACKKHELYVSFRDLGWQDWIIAPEGYAAYYCEGECAFPLNSYMNATNHAIVQTLVHFINPETVPKPCCAPTQLNAISVLYFDDSSNVILKKYRNMVVRACGCH
B3: BMPRII-Fc (Fc fusion, human, UniProt Q13873 27-136, looked up)
chain: SQNQERLCAFKDPYQQDLGIGESRISHENGTILCSKGSTCYGLWEKSKGDINLVKQGCWSHIGDPQECHYEECVVTTTPPSIQNGTYRFCCCSTDLCNVNFTENFPPPDT
B4: Recombinant human Nodal (ligand, UniProt Q96S42 238-347, looked up)
chain: HHLPDRSQLCRKVKFQVDFNLIGWGSWIIYPKQYNAYRCEGECPNPVGEEFHPTNHAYIQSLLKRYQPHRVPSTCCAPVKTKPLSMLYVDNGRVLLDHHKDMIVEECGCL
B5: wild-type Cerberus, Fc free (wtCer) (natural protein, human, UniProt O95813 18-267, looked up)
chain: T1 sequence (looked up)
B6: mutant Cerberus, Fc free (mutCer) (natural protein, human, UniProt O95813 18-267, looked up)
chain: T1 sequence (looked up) with R65G, C189A
B7: Recombinant human Activin B (ligand, UniProt P09529 293-407, looked up)
chain: GLECDGRTNLCCRQQFFIDFRLIGWNDWIIAPTGYYGNYCEGSCPAYLAGVPGSASSFHTAVVNQYRMRGLNPGTVNSCCIPTKLSTMSMLYFDDEYNIVKRDVPNMIVEECGCA

For data set [1], the target named is short-form Cerberus Fc fusion protein (CerS-Fc) (human) (UniProt O95813). Description: SPR.
The target in data set [2] is short-form Cerberus, Fc free (CerS) (human) (UniProt O95813). Description: cross-linking.
The target in data set [3] is Recombinant human Activin B (human) (UniProt P09529). Description: SPR. A general note: In SPR one partner is held on a chip, and binding of the other changes the refractive index at the surface.
Data set [4] shares this target. Description: SPR. The source holds these as a separate data set.
In data set [5] the target is T1, wild-type Cerberus Fc fusion protein …. Description: SPR.
Data set [6] deals with T2, mutant Cerberus Fc fusion protein …. Description: SPR.
Data set [7] addresses B1. Description: SPR.
Data set [8] has as its target B7. Description: SPR.
The target of the data set “BMPRII-Fc” is B3. Description: SPR.
The target in data set [9] is B1. Description: SPR. The source holds these as a separate data set.
The target in data set [10] is B7. Description: SPR. The source holds these as a separate data set.
Data set [11] concerns the target B1. Description: SPR. The source holds these as a separate data set.
Data set [12] concerns the target B7. Description: SPR. This is another data set of the same source.
The data set “SEC” deals with the molecule itself. Description: SEC. In general terms: In gel filtration, larger molecules generally elute earlier.

As to “Recombinant human BMP-6 (from UniProt P22004 375-513) (ligand)”, in data set [1], the Kd is 15.2 nM and the dissociation rate constant (koff) turned out to be 0.0012 s⁻¹.
In turn, “short-form Cerberus, Fc free (CerS) (from UniProt O95813 18-267) (domain or fragment)” came in with a stoichiometry N in data set [2] of 2. For the same molecule, the IC50 in data set [3] worked out at 28.4 nM. In data set [4], the IC50 stood at 261 nM and the percent reduction of Activin B binding to ActRIIA at 50 nM worked out at 10%.
In the case of “Recombinant human BMP-7 (from UniProt P18075 293-431) (ligand)”, in data set [1], the dissociation constant Kd was determined as 15.6 nM, the koff stood at 0.0021 s⁻¹ and the kon stood at 140000 M⁻¹ s⁻¹.
In data set [5], B1 yielded a Kd of 19.1 ± 2.5 nM, a dissociation rate constant (koff) of 0.0011 s⁻¹ and an association rate constant (kon) of 55000 M⁻¹ s⁻¹. For the same molecule, in [6], the Kd came to 14.7 ± 3.6 nM, the koff is 0.001 s⁻¹ and the kon came to 70000 M⁻¹ s⁻¹.
In [5], B2 gave a Kd of 17.3 ± 0.8 nM, a koff of 0.0028 s⁻¹ and a kon of 160000 M⁻¹ s⁻¹. In data set [6], the dissociation constant Kd came out at 9.8 ± 0.9 nM, the dissociation rate constant (koff) was found to be 0.0012 s⁻¹ and the on-rate (kon) came out at 130000 M⁻¹ s⁻¹.
Regarding B3, the binding result (with Recombinant human BMP-6 [7]; in [8]) was “binds” each time.
For B4, in the data set with BMPRII-Fc, the binding result is recorded as “binds”.
With B5, the concentration for half-maximal inhibition (IC50) came to 319 ± 53.4 nM with Recombinant human BMP-6 [9], 26.2 ± 1.7 nM in data set [10], 156 ± 9.2 nM with Recombinant human BMP-6 [11] and 14.9 ± 4.2 nM in data set [12].
Take B6: the concentration for half-maximal inhibition (IC50) with Recombinant human BMP-6 [9] is 350 ± 96.1 nM; in [10], 40.1 ± 2.5 nM; in the data set with Recombinant human BMP-6 [11] it was 48.3 ± 3.5 nM; in [12], 7.4 ± 1.1 nM. Also, the “stoichiometry N” value in the data set “SEC” came out at 2.
In data set [5], B7 returned a dissociation constant (Kd) of 0.096 ± 0.01 nM, an off-rate (koff) of 0.00022 s⁻¹ and an on-rate constant (kon) of 2.3e+06 M⁻¹ s⁻¹. In data set [6], this molecule yielded a Kd of 0.016 ± 0.003 nM, an off-rate (koff) of 3.1e-05 s⁻¹ and a kon of 2e+06 M⁻¹ s⁻¹.

In general, Kd refers to the constant that tells how readily two partners part at equilibrium. What is called koff is a measure of how fast the partners let go of each other. A high value points to fast dissociation. What is called stoichiometry N is a count of units in the complex or per binding partner. By IC50 is commonly meant the concentration needed to halve the response being measured. What is called kon is the rate constant with which the complex forms. A low value points to slow association.
